Laboratory results reported in PMC4646322 (The Journal of Biological Chemistry, 2015).

B1: E. coli TolR(64–142) (domain or fragment, Escherichia coli K12)
chain: GAMVIVEVSGIGQYTVVVEKDRLERLPPEQVVAEVSSRFKANPKTVFLIGGAKDVPYDEIIKALNLLHSAGVKSVGLMTQPI
notes: three residues left at the N terminus after cleavage by tobacco etch virus protease; expected mass 8818.3 Da; Dimer that dissociates on dilution; source: E. coli BL21 DE3, purified (HisTrap, TEV cleavage, Superdex75); not shown: His6, N-terminal, cleaved
B2: E. coli TolR(60–133), truncated TolR (domain or fragment, Escherichia coli K12)
chain: GAMDNPPVIVEVSGIGQYTVVVEKDRLERLPPEQVVAEVSSRFKANPKTVFLIGGAKDVPYDEIIKALNLLHSAGVK
notes: three residues left at the N terminus after cleavage by tobacco etch virus protease; TolR, Escherichia coli K12, residues 60-133 (N- and C-terminal strand-swapped regions deleted); expected mass 8314.6 Da; Dimer that dissociates already at 200 μM; also called TolR24; source: E. coli BL21 DE3, purified (HisTrap, TEV cleavage, Superdex75); not shown: His6, N-terminal, cleaved
B3: E. coli TolR(36–142), intact periplasmic domain of TolR (domain or fragment, Escherichia coli K12)
chain: GAMAPIITQSVEVDLPDATESQAVSSNDNPPVIVEVSGIGQYTVVVEKDRLERLPPEQVVAEVSSRFKANPKTVFLIGGAKDVPYDEIIKALNLLHSAGVKSVGLMTQPI
notes: three residues left at the N terminus after cleavage by tobacco etch virus protease; expected mass of the monomer 11,695.4 Da; Vector pETM-11; also called TolR21; source: E. coli BL21 DE3, purified (HisTrap, TEV cleavage, Superdex75); not shown: His6, N-terminal, cleaved
B4: E. coli TolR(36–133) (domain or fragment, Escherichia coli K12)
chain: GAMAPIITQSVEVDLPDATESQAVSSNDNPPVIVEVSGIGQYTVVVEKDRLERLPPEQVVAEVSSRFKANPKTVFLIGGAKDVPYDEIIKALNLLHSAGVK
notes: three residues left at the N terminus after cleavage by tobacco etch virus protease; TolR, Escherichia coli K12, residues 36-133 (9 C-terminal residues deleted); expected mass 10,768.2 Da; Dimer that dissociates on dilution; essentially monomeric at low micromolar concentrations; source: E. coli BL21 DE3, purified (HisTrap, TEV cleavage, Superdex75); not shown: His6, N-terminal, cleaved

Experiments:
[1] = target: the molecule itself; experiment: SEC-MALS; SEC-MALLS, Superdex75 10/300, 50 mM Tris pH 7.5, 150 mM NaCl; samples loaded at 20, 200 or 500 μM
[2] = target: the molecule itself; experiment: AUC; sedimentation equilibrium, 20 and 200 μM TolR(36–142), 15,000-35,000 rpm, 20 h at each speed, 50 mM Tris pH 7.5, 150 mM NaCl, 20 °C, interference optics; self-association model

Row | Protein | binding result [1] | stoichiometry N [2]
1 | B1 | binds | 
2 | B2 | binds | 
3 | B3 |  | 2
4 | B4 | binds | 
